Numbering of substitutions follows the chain as printed. In names and notes the source's numbering stands.
B1: variant CD80 IgV-Fc V22A/E35D/M47L/A71G (Fc fusion, not shown: a dimerising Fc or GST)
chain: VIHVTKEVKEVATLSCGHNVSAEELAQTRIYWQKDKKMVLTMMSGDLNIWPEYKNRTIFDITNNLSIVILGLRPSDEGTYECVVLKYEKDAFKREHLAEVTLSVKAD
B2: variant CD80 IgV-Fc E35D/D46E/M47I/T62A/V68M/L85M/Y87C (Fc fusion, not shown: small tags and cut ends; a dimerising Fc or GST)
chain: B1 chain with A22V, D46E, L47I, T62A, V68M, G71A, L85M, Y87C
B3: variant CD80 IgV-Fc E35D/D46E/M47V/V68M/L85Q (Fc fusion, not shown: small tags and cut ends; a dimerising Fc or GST)
chain: B1 chain with A22V, D46E, L47V, V68M, G71A, L85Q
B4: variant CD80 IgV-Fc R29C/E35D/M47L/V68M/A71G/L85M (Fc fusion, not shown: small tags and cut ends; a dimerising Fc or GST)
chain: B1 chain with A22V, R29C, V68M, L85M
B5: variant CD80 IgV-Fc Q33L/E35D/M47V/T62S/V68M/L85M (Fc fusion, not shown: small tags and cut ends; a dimerising Fc or GST)
chain: B1 chain with A22V, Q33L, L47V, T62S, V68M, G71A, L85M
B6: variant CD80 IgV-Fc E35D/M47V/V68M/L85M/Y87D (Fc fusion, not shown: small tags and cut ends; a dimerising Fc or GST)
chain: B1 chain with A22V, L47V, V68M, G71A, L85M, Y87D
B7: WT CD80 ECD-Fc (Abcam) (Fc fusion, UniProt P33681 35-242, looked up)
chain: VIHVTKEVKEVATLSCGHNVSVEELAQTRIYWQKEKKMVLTMMSGDMNIWPEYKNRTIFDITNNLSIVILALRPSDEGTYECVVLKYEKDAFKREHLAEVTLSVKADFPTPSISDFEIPTSNIRRIICSTSGGFPEPHLSWLENGEELNAINTTVSQDPETELYAVSSKLDFNMTTNHSFMCLIKYGHLRVNQTFNWNTTKQEHFPDN
notes: extracellular domain; not shown: Fc of the bought product, not described
B8: CD80 E35D/M47V/N48K/V68M/K89N IgV-Fc (Fc fusion, not shown: small tags and cut ends; a dimerising Fc or GST)
chain: B1 chain with A22V, L47V, N48K, V68M, G71A, K89N
B9: CD80 E35D/N48K/V68M/K89N IgV-Fc (Fc fusion, not shown: small tags and cut ends; a dimerising Fc or GST)
chain: B1 chain with A22V, L47M, N48K, V68M, G71A, K89N
B10: CD80 N48K/K89N IgV-Fc (Fc fusion, not shown: small tags and cut ends; a dimerising Fc or GST)
chain: B1 chain with A22V, D35E, L47M, N48K, G71A, K89N
B11: CD80 E35D/D46V/M47V/V68M/K89N IgV-Fc (Fc fusion, not shown: small tags and cut ends; a dimerising Fc or GST)
chain: B1 chain with A22V, D46V, L47V, V68M, G71A, K89N
B12: CD80 E35D/M47V/K89N IgV-Fc (Fc fusion, not shown: small tags and cut ends; a dimerising Fc or GST)
chain: B1 chain with A22V, L47V, G71A, K89N

Target: T1, CD28 on Jurkat/IL2 reporter cells (human, UniProt P10747 19-220)
T1 construct: whole, on cells; Endogenous CD28 of Jurkat cells; also called Jurkats (CD28)
Experiment: flow cytometry, Jurkat cells (CD28)

**Q.** Which “MFI at 33.3 nM” value does the source give for B1 here?
**A.** 990 MFI

Target: T2, human PD-L1 on CHO cells (human, UniProt Q9NZQ7 19-290)
T2 construct: whole, on cells; CHO cells stably expressing PD-L1; also called huPD-L1
T2 sequence (Q9NZQ7 19-290): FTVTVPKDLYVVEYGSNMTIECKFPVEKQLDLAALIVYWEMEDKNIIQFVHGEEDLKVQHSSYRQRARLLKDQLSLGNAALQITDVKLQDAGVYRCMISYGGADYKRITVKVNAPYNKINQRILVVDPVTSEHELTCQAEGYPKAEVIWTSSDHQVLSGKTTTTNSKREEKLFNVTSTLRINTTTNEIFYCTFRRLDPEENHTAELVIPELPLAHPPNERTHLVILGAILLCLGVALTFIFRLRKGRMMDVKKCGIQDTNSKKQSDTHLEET
Experiment: flow cytometry; PD-L1 MFI over CD28 MFI

**Q.** With B1 as the binder, how does the “Ratio of PDL1:CD28” value read?
**A.** 8 ratio

Target: T3, human CTLA4 (huCTLA4), full-length, stably expressed on CHO cells (human, UniProt P16410 36-223)
T3 construct: whole, on cells
T3 sequence (P16410 36-223): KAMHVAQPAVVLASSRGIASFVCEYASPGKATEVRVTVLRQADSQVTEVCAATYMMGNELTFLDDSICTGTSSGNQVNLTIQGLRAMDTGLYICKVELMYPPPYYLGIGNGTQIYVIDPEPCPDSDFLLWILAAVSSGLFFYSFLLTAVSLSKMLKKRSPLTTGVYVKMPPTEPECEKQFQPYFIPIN
Experiment: flow cytometry, CHO cells expressing huCTLA4

**Q.** For B2, which “MFI at 33.3 nM” value is on record?
**A.** 17000 MFI

**Q.** Which “MFI at 33.3 nM” value does the source give for B3 here?
**A.** 15500 MFI

**Q.** For B4, which “MFI at 33.3 nM” value is on record?
**A.** 91 MFI

**Q.** Which “MFI at 33.3 nM” value does the source give for B5 here?
**A.** 86 MFI

**Q.** With B6 as the binder, how does the “MFI at 33.3 nM” value read?
**A.** 13900 MFI

Target: T4, human PD-L1 (huPD-L1), full-length, stably expressed on CHO cells (human, UniProt Q9NZQ7 19-290)
T4 construct: whole, on cells
T4 sequence (Q9NZQ7 19-290): as the sequence (Q9NZQ7 19-290) above
Experiment: flow cytometry, CHO cells expressing huPD-L1

**Q.** For B3, which “MFI at 33.3 nM” value is on record?
**A.** 1720 MFI

**Q.** With B6 as the binder, how does the “MFI at 33.3 nM” value read?
**A.** 1720 MFI

Target: T5, human CTLA4 on CHO cells (human, UniProt P16410 36-223)
T5 construct: whole, on cells; CHO cells stably expressing CTLA4; also called huCTLA4
T5 sequence (P16410 36-223): as the sequence (P16410 36-223) above
Experiment: flow cytometry, CHO cells stably expressing CTLA4

**Q.** B1 was tested. Which “MFI at 33.3 nM” value did it give?
**A.** 21900 MFI

Target: T2, human PD-L1 on CHO cells
Experiment: flow cytometry, CHO cells stably expressing PD-L1

**Q.** With B1 as the binder, how does the “MFI at 33.3 nM” value read?
**A.** 8170 MFI

Target: T5, human CTLA4 on CHO cells
Experiment: flow cytometry, CHO/CTLA4 cells; MFI relative to WT CD80

**Q.** Which “Fold change to WT CD80” value does the source give for B1 here?
**A.** 11.4 fold

Target: T2, human PD-L1 on CHO cells
Experiment: flow cytometry, CHO/PD-L1 cells; MFI relative to WT CD80

**Q.** B1 was tested. Which “Fold change to WT CD80” value did it give?
**A.** 116 fold

Target: T6, CD28 endogenously expressed on Jurkat/IL2 reporter cells (human, UniProt P10747 19-220)
T6 construct: whole, on cells; Target on Jurkat cells; also called Jurkats (CD28)
Experiment: flow cytometry, Jurkat cells (CD28), Fc fusion at 33.3 nM

**Q.** Which “MFI at 33.3 nM” value does the source give for B7 here?
**A.** 709 MFI

**Q.** B8 was tested. Which “MFI at 33.3 nM” value did it give?
**A.** 1350 MFI

**Q.** Which “MFI at 33.3 nM” value does the source give for B9 here?
**A.** 1530 MFI

**Q.** For B10, which “MFI at 33.3 nM” value is on record?
**A.** 170 MFI

**Q.** How did the “MFI at 33.3 nM” value turn out when B11 was run?
**A.** 2120 MFI

**Q.** For B12, which “MFI at 33.3 nM” value is on record?
**A.** 507 MFI

Target: T1, CD28 on Jurkat/IL2 reporter cells
Experiment: flow cytometry, Jurkat cells (CD28); MFI relative to WT CD80

**Q.** Which “Fold change to WT CD80” value does the source give for B1 here?
**A.** 15 fold

Target: T7, human CTLA4 expressed on CHO cells (human, UniProt P16410 36-223)
T7 construct: whole, on cells; Target on CHO cells stably expressing CTLA4; also called huCTLA4
T7 sequence (P16410 36-223): as above
Experiment: flow cytometry, CHO cells stably expressing CTLA4, Fc fusion at 33.3 nM

**Q.** Which “MFI at 33.3 nM” value does the source give for B8 here?
**A.** 20900 MFI

**Q.** B10 was tested. Which “MFI at 33.3 nM” value did it give?
**A.** 4370 MFI

**Q.** How did the “MFI at 33.3 nM” value turn out when B12 was run?
**A.** 39300 MFI

Target: T8, human PD-L1 expressed on CHO cells (human, UniProt Q9NZQ7 19-290)
T8 construct: whole, on cells; Target on CHO cells stably expressing PD-L1; also called huPD-L1
T8 sequence (Q9NZQ7 19-290): as the sequence (Q9NZQ7 19-290) above
Experiment: flow cytometry, CHO cells stably expressing PD-L1, Fc fusion at 33.3 nM

**Q.** Which “MFI at 33.3 nM” value does the source give for B8 here?
**A.** 14800 MFI

**Q.** Which “MFI at 33.3 nM” value does the source give for B9 here?
**A.** 17400 MFI

**Q.** For B11, which “MFI at 33.3 nM” value is on record?
**A.** 21600 MFI

**Q.** For B12, which “MFI at 33.3 nM” value is on record?
**A.** 4340 MFI
